B1: CIB1 (parent)
chain: DLSRLVNCLTGEGEDTRLSASEMK

Variants of: B1
Assay: protein stability index of a GFP-peptide fusion (GPS, HEK-293T) (PSI 1-6); higher = more stable
Settings: c terminus: a fixed tail appended
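Also: lentivirally expressed fusions sorted by FACS into six bins by GFP to DsRed ratio, PSI derived from sequencing read proportions per bin multiplied by bin number.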

In order of rising protein stability index:
1. DLSRLVNCLTGEGEDTRGSASEMK  1.4
2. DLSRLVNCLTGEGEVTRLSASEMK  1.54
3. DLSRLVNCLTGEGEMTRLSASEMK  1.61
4. DLSRLVNCLTGEGDDTRLSASEMK  1.66
5. DLSRLVNCLTGEGENTRLSASEMK  1.77
6. DLSRLVNCLTGTGEDTRLSASEMK  1.85
7. DLSRLVNCLTGEGEDTRFSASEMK  1.85
8. DLSRLVNCLTGLGEDTRLSASEMK  1.88
9. DLSRLVNCLTGWGEDTRLSASEMK  2.05
10. DLSRLVNCLTGEGMDTRLSASEMK  2.06
11. DLSRLVNCLTGEGEYTRLSASEMK  2.06
12. DLSRLVNCLTGEGEDFRLSASEMK  2.07
13. DLSRLVNCLTGEGETTRLSASEMK  2.12
14. DLSRLVNCLTGYGEDTRLSASEMK  2.17
15. DLSRLVNCLTGEGPDTRLSASEMK  2.17
16. DLSRLVNCLTGEGECTRLSASEMK  2.19
17. DLSRLVNCLTGEGFDTRLSASEMK  2.2
18. DLSRLVNCLTGEGLDTRLSASEMK  2.27
19. DLSRLVNCLTGEGEFTRLSASEMK  2.32
20. DLSRLVNCLTGEGEDTWLSASEMK  2.33
21. DLSRLVNCLTGEGRDTRLSASEMK  2.34
22. DLSRLVNCLTGEGADTRLSASEMK  2.37
23. DLSRLVNCLTGRGEDTRLSASEMK  2.4
24. DLSRLVNCLTGEWEDTRLSASEMK  2.4
25. DLSRLVNCLTGQGEDTRLSASEMK  2.43
26. DLSRLVNCLTGSGEDTRLSASEMK  2.44
27. DLSRLVNCLTGEGEDARLSASEMK  2.46
28. DLSRLVNCLTGEGEDSRLSASEMK  2.48
29. DLSRLVNCLTGEGEDTRESASEMK  2.48
30. DLSRLVNCLTGEGEDYRLSASEMK  2.49
31. DLSRLVNCLTGEGEDTRMSASEMK  2.49
32. DLSRLVNCLTGELEDTRLSASEMK  2.53
33. DLSRLVNCLTGEQEDTRLSASEMK  2.54
34. DLSRLVNCLTGEGEDTLLSASEMK  2.59
35. DLSRLVNCLTGEGIDTRLSASEMK  2.6
36. DLSRLVNCLTGEGEPTRLSASEMK  2.62
37. DLSRLVNCLTGEGEDMRLSASEMK  2.62
38. DLSRLVNCLTGEVEDTRLSASEMK  2.65
39. DLSRLVNCLTGEGEDTVLSASEMK  2.65
40. DLSRLVNCLTGEGERTRLSASEMK  2.67
41. DLSRLVNCLTGENEDTRLSASEMK  2.71
42. DLSRLVNCLTGEMEDTRLSASEMK  2.76
43. DLSRLVNCLTGEGEDTNLSASEMK  2.76
44. DLSRLVNCLTGEGEDVRLSASEMK  2.8
45. DLSRLVNCLTGEGEDTYLSASEMK  2.81
46. DLSRLVNCLTGEGEDTKLSASEMK  2.82
47. DLSRLVNCLTGEGYDTRLSASEMK  2.83
48. DLSRLVNCLTGEGEDTSLSASEMK  2.84
49. DLSRLVNCLTGEREDTRLSASEMK  2.89
50. DLSRLVNCLTGEGEDQRLSASEMK  2.9
51. DLSRLVNCLTGECEDTRLSASEMK  2.94
52. DLSRLVNCLTGEGKDTRLSASEMK  2.94
53. DLSRLVNCLTGEGEDTILSASEMK  2.97
54. DLSRLVNCLTGEGEDTFLSASEMK  2.99
55. DLSRLVNCLTGEYEDTRLSASEMK  3.02
56. DLSRLVNCLTGEPEDTRLSASEMK  3.03
57. DLSRLVNCLTGPGEDTRLSASEMK  3.04
58. DLSRLVNCLTGEGHDTRLSASEMK  3.05
59. DLSRLVNCLTGEGNDTRLSASEMK  3.06
60. DLSRLVNCLTGEEEDTRLSASEMK  3.07
61. DLSRLVNCLTGEGEDTMLSASEMK  3.08
62. DLSRLVNCLTGEGEKTRLSASEMK  3.1
63. DLSRLVNCLTGEGEDTQLSASEMK  3.1
64. DLSRLVNCLTGETEDTRLSASEMK  3.16
65. DLSRLVNCLTGEGEDERLSASEMK  3.18
66. DLSRLVNCLTGMGEDTRLSASEMK  3.22
67. DLSRLVNCLTGEGEDNRLSASEMK  3.22
68. DLSRLVNCLTGEHEDTRLSASEMK  3.31
69. DLSRLVNCLTGVGEDTRLSASEMK  3.34
70. DLSRLVNCLTGEGEDTRASASEMK  3.34
71. DLSRLVNCLTGEGEDGRLSASEMK  3.35
72. DLSRLVNCLTGEGEDTPLSASEMK  3.35
73. DLSRLVNCLTGEGCDTRLSASEMK  3.36
74. DLSRLVNCLTGEGEDTRKSASEMK  3.36
75. DLSRLVNCLTGEGTDTRLSASEMK  3.41
76. DLSRLVNCLTGEKEDTRLSASEMK  3.45
77. DLSRLVNCLTGEGEHTRLSASEMK  3.49
78. DLSRLVNCLTGEGEDHRLSASEMK  3.5
79. DLSRLVNCLTGEGEETRLSASEMK  3.52
80. DLSRLVNCLTGEGQDTRLSASEMK  3.53
81. DLSRLVNCLTGEIEDTRLSASEMK  3.55
82. DLSRLVNCLTGEGEDDRLSASEMK  3.58
83. DLSRLVNCLTGEGEATRLSASEMK  3.61
84. DLSRLVNCLTGEAEDTRLSASEMK  3.62
85. DLSRLVNCLTGEGEDTALSASEMK  3.68
86. DLSRLVNCLTGEGEDLRLSASEMK  3.71
87. DLSRLVNCLTGEGEGTRLSASEMK  3.83
88. DLSRLVNCLTGEGEDKRLSASEMK  3.87
89. DLSRLVNCLTGESEDTRLSASEMK  3.97
90. DLSRLVNCLTGEGEDPRLSASEMK  4.07
91. DLSRLVNCLTGEGEDTRDSASEMK  4.07
92. DLSRLVNCLTGEGEDTRHSASEMK  4.09
93. DLSRLVNCLTGEGEDTDLSASEMK  4.12
94. DLSRLVNCLTGEGEDTELSASEMK  4.53

Reference: the supplement of paper PMC10567573
